Source: article PMC9230395

Molecular target: T1, ZBP1 (recombinant Z-DNA-binding protein) (UniProt Q9H171)
T1 sequence: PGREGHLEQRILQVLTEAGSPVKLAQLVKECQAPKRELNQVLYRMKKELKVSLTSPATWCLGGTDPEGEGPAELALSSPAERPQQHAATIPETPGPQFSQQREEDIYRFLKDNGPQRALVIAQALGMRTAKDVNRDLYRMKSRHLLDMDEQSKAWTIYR
Assay: BLI
Conditions: 10 mM MgCl2; kon 8.28e3 M-1 s-1, koff 4.68e-6 s-1; strands 1 and 2 circular; BLI: 1x PBS (10 mM phosphate) pH 7.2, 10 mM MgCl2, 0.1% BSA, 0.02% Tween-20, 25 C; EMSA: 10 mM phosphate pH 7.2, 10 mM MgCl2, 0.25 uM DNA, 6% PAGE (cc-91A) …

CGTGTGATATAGGTGAACGCGCGTGTGTGTATATGTGTGCGATCGTAGAACTTGTGAACCCTTATACCATGCACGATCGCACATTTCGCACA / GCACACATATACACACACGCGCGTTCACCTATATCACACGTGACTTGTAATTAGTAACTACCAACGTGCGTGTGTGTCAGTCAGCGAAATGTGCGATCGTGCATGGTATAAGGGTTCACAAGTTCTACGATC / TTTTTACCTCACTATACTTACATGTTTTTTGGTAGTTACTAATTACAAGT [Bait-cc-91A (cc-91A + lB50)]
Kd: 566 pM
